Values belong to the binder of their own block, whether it stands above or below them.
Biological target: T1, GST-RhoB(17A), nucleotide free RhoB mutant (UniProt P62745 1-196, G17A)
T1 construct: RhoB, small GTPase of the Rho family, with the nucleotide-free mutation G17A; also called nucleotide-free mutant of RhoB; nucleotide-free Rho mutants (G17A)
Test: pull-down; 20 ug purified GST-RhoB(17A) on glutathione-sepharose beads, incubated with clarified MCF-7 lysates for 60 min at 4 C; cells mock-treated or irradiated with 5 Gy (also 400 uM 5-FU for 72 h); immunoblot for the GEFs
Settings: one partner purified

T1 sequence (P62745 whole entry G17A): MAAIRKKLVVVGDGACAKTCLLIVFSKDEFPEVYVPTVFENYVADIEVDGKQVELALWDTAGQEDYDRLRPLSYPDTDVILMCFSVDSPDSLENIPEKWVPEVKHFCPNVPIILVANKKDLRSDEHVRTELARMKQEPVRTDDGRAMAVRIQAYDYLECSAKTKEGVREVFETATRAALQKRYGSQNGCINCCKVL

fold increase in binding after IR over mock-treated: ≥ 5 fold
B1: neuroepithelial transforming gene 1 (Net1) (natural protein, human (endogenous in MCF-7 and HeLa), UniProt Q7Z628 1-596, looked up)
chain: MEPELAAQKQPRPRRRSRRASGLSTEGATGPSADTSGSELDGRCSLRRGSSFTFLTPGPNWDFTLKRKRREKDDDVVSLSSLDLKEPSNKRVRPLARVTSLANLISPVRNGAVRRFGQTIQSFTLRGDHRSPASAQKFSSRSTVPTPAKRRSSALWSEMLDITMKESLTTREIRRQEAIYEMSRGEQDLIEDLKLARKAYHDPMLKLSIMSEEELTHIFGDLDSYIPLHEDLLTRIGEATKPDGTVEQIGHILVSWLPRLNAYRGYCSNQLAAKALLDQKKQDPRVQDFLQRCLESPFSRKLDLWSFLDIPRSRLVKYPLLLKEILKHTPKEHPDVQLLEDAILIIQGVLSDINLKKGESECQYYIDKLEYLDEKQRDPRIEASKVLLCHGELRSKSGHKLYIFLFQDILVLTRPVTRNERHSYQVYRQPIPVQELVLEDLQDGDVRMGGSFRGAFSNSEKAKNIFRIRFHDPSPAQSHTLQANDVFHKQQWFNCIRAAIAPFQSAGSPPELQGLPELHEECEGNHPSARKLTAQRRASTVSSVTQVEVDENAYRCGSGMQMAEDSKSLKTHQTQPGIRRARDKALSGGKRKETLV
notes: Net1, nuclear guanine nucleotide exchange factor, endogenous in human cancer cell lines, detected by immunoblot; source: endogenous, MCF-7 lysate; endogenous, HeLa lysate

fold increase in binding after IR over mock-treated: ≥ 5 fold
B2: epithelial cell transforming sequence 2 (Ect2) (natural protein, human (endogenous in MCF-7 and HeLa), UniProt Q9H8V3 1-914, looked up)
chain: MAENSVLTSTTGRTSLADSSIFDSKVTEISKENLLIGSTSYVEEEMPQIETRVILVQEAGKQEELIKALKTIKIMEVPVIKIKESCPGKSDEKLIKSVINMDIKVGFVKMESVEEFEGLDSPEFENVFVVTDFQDSVFNDLYKADCRVIGPPVVLNCSQKGEPLPFSCRPLYCTSMMNLVLCFTGFRKKEELVRLVTLVHHMGGVIRKDFNSKVTHLVANCTQGEKFRVAVSLGTPIMKPEWIYKAWERRNEQDFYAAVDDFRNEFKVPPFQDCILSFLGFSDEEKTNMEEMTEMQGGKYLPLGDERCTHLVVEENIVKDLPFEPSKKLYVVKQEWFWGSIQMDARAGETMYLYEKANTPELKKSVSMLSLNTPNSNRKRRRLKETLAQLSRETDVSPFPPRKRPSAEHSLSIGSLLDISNTPESSINYGDTPKSCTKSSKSSTPVPSKQSARWQVAKELYQTESNYVNILATIIQLFQVPLEEEGQRGGPILAPEEIKTIFGSIPDIFDVHTKIKDDLEDLIVNWDESKSIGDIFLKYSKDLVKTYPPFVNFFEMSKETIIKCEKQKPRFHAFLKINQAKPECGRQSLVELLIRPVQRLPSVALLLNDLKKHTADENPDKSTLEKAIGSLKEVMTHINEDKRKTEAQKQIFDVVYEVDGCPANLLSSHRSLVQRVETISLGEHPCDRGEQVTLFLFNDCLEIARKRHKVIGTFRSPHGQTRPPASLKHIHLMPLSQIKKVLDIRETEDCHNAFALLVRPPTEQANVLLSFQMTSDELPKENWLKMLCRHVANTICKADAENLIYTADPESFEVNTKDMDSTLSRASRAIKKTSKKVTRAFSFSKTPKRALRRALMTSHGSVEGRSPSSNDKHVMSRLSSTSSLAGIPSPSLVSLPSFFERRSHTLSRSTTHLI
notes: Ect2, nuclear guanine nucleotide exchange factor, endogenous in human cancer cell lines, detected by immunoblot (sc-1005); source: endogenous, MCF-7 lysate; endogenous, HeLa lysate
